Data taken from patent publication US7011817B2, “Hydrophilic cyanine dyes” (Mallinckrodt Inc., priority 2000, dated 2006).

Tests used:
[1] = Imaging of individual organs removed from CA20948 tumor-bearing rat; type: in vivo; settings: about 24 hours post administration
Description: Individual organs were removed at about 24 hours post Cytate 1 administration and imaged.

[2] = Monitoring of the blood clearance profile of peptide-dye conjugates; type: in vivo, Sprague-Dawley or Fischer 344 rats; settings: rat ear; monitored at 830 nm after excitation at 780 nm
Excerpt: A laser of appropriate wavelength for excitation of the dye chromophore was directed into one end of a fiber optic bundle and the other end was positioned a few millimeters from the ear of a rat. A second fiber optic bundle was also positioned near the same ear to detect the emitted fluorescent light and the other end was directed into the optics and electronics for data collection. An interference filter (IF) in the collection optics train was used to select emitted fluorescent light of the appropriate wavelength for the dye chromophore.
Sprague-Dawley or Fischer 344 rats were used in these studies. The animals were anesthetized with urethane administered via intraperitoneal injection at a dose of 1.35 g/kg body weight. After the animals had achieved the desired plane of anesthesia, a 21 gauge butterfly with 12″ tubing was placed in the lateral tail vein of each animal and flushed with heparinized saline. The animals were placed on a heating pad and kept warm throughout the entire study. The lobe of the left ear was affixed to a glass microscope slide to reduce movement and vibration.
Incident laser light delivered from the fiber optic was centered on the affixed ear. Data acquisition was then initiated, and a background reading of fluorescence was obtained prior to administration of the test agent. For Cytates 1 or 2, the peptide-dye conjugate was administered to the animal through a bolus injection, typically 0.5 to 2.0 mL, in the lateral tail vein. This procedure was repeated with several dye-peptide conjugates in normal and tumor-bearing rats. Representative profiles as a method to monitor blood clearance of the peptide-dye conjugate in normal and tumor-bearing animals are shown in FIGS. 12 to 16. The data were analyzed using a standard sigma plot software program for a one-compartment model.

[3] = tested on: Pancreatic Ductal Adenocarcinoma (DSL 6A); assay: In vivo fluorescence imaging of DSL 6A tumors in rats; design: species or system male Lewis rats
Excerpt: (§1) A non-invasive in vivo fluorescence imaging apparatus was employed to assess the efficacy of contrast agents developed for tumor detection in animal models. A LaserMax Inc. laser diode of nominal wavelength 780 nm and nominal power of 40 mW was used. The detector was a Princeton Instruments model RTE/CCD-1317-K/2 CCD camera with a Rodenstock 10 mm F2 lens (stock #542.032.002.20) attached. An 830 nm interference […] (CVI Laser Corp., part # F10-830-4-2) was mounted in front of the CCD input lens such that only emitted fluorescent light from the contrast agent was imaged. Typically, an image of the animal was taken pre-injection of contrast agent. This image was subsequently subtracted (pixel by pixel) from the post injection images. However, the background subtraction was […] done once the animal had been removed from the sample area and returned at a later time for images taken several hours post injection.
DSL 6A tumors were induced in male Lewis rats in the left flank area by the introduction of material from a solid (donor) implant, and the tumors were palpable in approximately 14 days. The animals were anesthetized with xylazine:ketamine:acepromazine, 1.5:1.5:0.5 at 0.8 mL/kg via intramuscular injection. The area of the tumor (left flank) was shaved to expose the tumor and the surrounding surface area. […]

[4] = tested on: Prostatic Carcinoma (R3327-H); assay: In vivo fluorescence imaging of prostatic carcinoma R3327-H in rats; design: species or system male Copenhagen rats
Excerpt: as §1
The imaging apparatus and the procedure used are described as in Example 12. Prostate tumors (Dunning R3327-H) were induced in young male Copenhagen rats in the left flank area from a solid implant. These tumors grow very slowly and palpable masses were present 4-5 months post implant. FIGS. 7C-D are images of a rat with an induced prostatic carcinoma tumor (R3327-H) imaged at two minutes (FIG. 7C) and 30 minutes (FIG. 7D) post injection.

[5] = tested on: Rat pancreatic acinar carcinoma expressing the SST-2 receptor (CA20948); assay: In vivo fluorescence imaging of pancreatic acinar carcinoma CA20948 in rats
Excerpt: as §1
The imaging apparatus and the procedure used are described in Example 12. Rat pancreatic acinar carcinoma expressing the SST-2 receptor (CA20948) was induced by solid implant technique in the left flank area, and palpable masses were detected nine days post implant. The images obtained at 2 and 30 minutes post injection are shown in FIGS. 7E-F. FIGS. 7E-F are images of a rat with an induced pancreatic acinar carcinoma (CA20948) expressing the SST-2 receptor imaged at two minutes (FIG. 7E) and 30 minutes (FIG. 7F) post injection.
The imaging apparatus and the procedure used are described in Example 12, except that each animal received 500 μl of a 1.0 mg/mL solution of Cytate 1 solution of 25% dimethylsulfoxide in water.
Rat pancreatic acinar carcinoma expressing the SST-2 receptor (CA20948) were induced by solid implant technique in the left flank area, and palpable masses were detected 24 days post implant. Images were obtained at various times post injection.
Cytate 1 was evaluated in the CA20948 Lewis rat model. […] At 27 hours post injection, the animal was again imaged (FIG. 9B).

Row | SMILES | organ uptake: adrenals [1] | organ uptake: heart [1] | organ uptake: liver [1] | organ uptake: muscle [1] | organ uptake: pancreas [1] | organ uptake: spleen [1] | organ uptake: tumor tissue [1] | blood fluorescence signal after bolus injection (rise) [2] | blood fluorescence signal after the peak (clearance) [2] | dye intensity in the tumor ([3]; 30 minutes post-ICG injection, DSL 6A tumor, 500 μL of 0.42 mg/mL in water, tail vein) | perfusion of the agent into the tumor ([3]; DSL 6/A (pancreatic) tumor line) | dye intensity in the tumor ([4]; 30 minutes post-ICG injection, R3327-H tumor) | perfusion of the agent into the tumor ([4]; Dunning R3327H (prostate) tumor line) | dye intensity in the tumor ([5]; 30 minutes post-ICG injection, CA20948 tumor) | dye fluorescence in the tumor at 45 minutes ([5]; 45 minutes post injection, CA20948 tumor) | perfusion of the agent into the tumor ([5]; CA20948 (pancreatic) tumor line)
1 | C[C@@H](O)[C@H](NC(=O)[C@@H]1CSSC[C@H](NC(=O)[C@@H](Cc2ccccc2)NC(=O)CC[N+]2=C(/C=C/C=C/C=C/C=C3/N(CCC(=O)O)c4ccc5ccccc5c4C3(C)C)C(C)(C)c3c2ccc2ccccc32)C(=O)N[C@@H](Cc2ccc(O)cc2)C(=O)N[C@H](Cc2c[nH]c3ccccc23)C(=O)N[C@@H](CCCCN)C(=O)N[C@@H]([C@@H](C)O)C(=O)N1)C(=O)O [Cytate 1, monoOctreotate-Bisethylcarboxymethylindocyanine dye] | high uptake | significantly lower uptake | significantly lower uptake | significantly lower uptake | high uptake | significantly lower uptake | high uptake | rapidly increased to a peak value | decayed as a function of time | – | – | – | – | – | – | –
2 | C[C@@H](O)[C@H](NC(=O)[C@@H]1CSSC[C@H](NC(=O)[C@@H](Cc2ccccc2)NC(=O)CCN2C(=CC=CC=CC=CC3=[N+](CCC(=O)N[C@H](Cc4ccccc4)C(=O)N[C@H]4CSSC[C@@H](C(=O)N[C@H](C(=O)O)[C@@H](C)O)NC(=O)[C@H]([C@@H](C)O)NC(=O)[C@H](CCCCN)NC(=O)[C@@H](Cc5c[nH]c6ccccc56)NC(=O)[C@H](Cc5ccc(O)cc5)NC4=O)c4ccc5ccccc5c4C3(C)C)C(C)(C)c3c2ccc2ccccc32)C(=O)N[C@@H](Cc2ccc(O)cc2)C(=O)N[C@H](Cc2c[nH]c3ccccc23)C(=O)N[C@@H](CCCCN)C(=O)N[C@@H]([C@@H](C)O)C(=O)N1)C(=O)O [Cytate 2, bisOctreotate-Bisethylcarboxymethylindocyanine dye] | – | – | – | – | – | – | – | rapidly increased to a peak value | decayed as a function of time | – | – | – | – | – | – | –
3 | CC1(C)C(/C=C/C=C/C=C/C=C2\N(CCCCS(=O)(=O)O)c3ccc4ccccc4c3C2(C)C)=[N+](CCCCS(=O)(=O)[O-])c2ccc3ccccc3c21 [ICG, indocyanine green] | – | – | – | – | – | – | – | – | – | considerably diminished | slow perfusion of the agent over time into the tumor | considerably diminished | slow perfusion of the agent over time into the tumor | considerably diminished and almost absent | mostly cleared | only a slight but transient perfusion that was absent after only 30 minutes post injection
